Test results as given in patent publication US20110158954A1, “METHOD FOR PRODUCING GAMMA DELTA T CELL POPULATION” (priority 2007, published 2011).

B1: H296-H296: modified fibronectin fragment in which two H-296's are connected to each other (SEQ ID NO: 22) (protein)
chain: AIPAPTDLKFTQVTPTSLSAQWTPPNVQLTGYRVRVTPKEKTGPMKEINLAPDSSSVVVSGLMVATKYEVSVYALKDTLTSRPAQGVVTTLENVSPPRRARVTDATETTITISWRTKTETITGFQVDAVPANGQTPIQRTIKPDVRSYTITGLQPGTDYKIYLYTLNDNARSSPVVIDASTAIDAPSNLRFLATTPNSLLVSWQPPRARITGYIIKYEKPGSPPREVVPRPRPGVTEATITGLEPGTEYTIYVIALKNNQKSEPLIGRKKTDELPQLVTLPHPNLHGPEILDVPSTAMAIPAPTDLKFTQVTPTSLSAQWTPPNVQLTGYRVRVTPKEKTGPMKEINLAPDSSSVVVSGLMVATKYEVSVYALKDTLTSRPAQGVVTTLENVSPPRRARVTDATETTITISWRTKTETITGFQVDAVPANGQTPIQRTIKPDVRSYTITGLQPGTDYKIYLYTLNDNARSSPVVIDASTAIDAPSNLRFLATTPNSLLVSWQPPRARITGYIIKYEKPGSPPREVVPRPRPGVTEATITGLEPGTEYTIYVIALKNNQKSEPLIGRKKTDELPQLVTLPHPNLHGPEILDVPST
modifications: Fibronectin fragment named H296-H296

Tests used:
γδ T cells [1] = assay: Expansion of γδ T cell population using pamidronate or IPP (Example 1); assay type: cell-based; conditions: human PBMCs, IL-2 20 U/mL, immobilized FN fragment, day 14
Description: Apheresis was performed, or 50 mL blood was collected from human healthy donor obtained with informed consent. The collected blood was then diluted 2-folds with phosphate buffered saline (manufactured by NEXELL or SIGMA, hereinafter referred to as “PBS”), overlaid on Ficoll-paque (manufactured by GE Healthcare Bio-Science), and centrifuged at 600×g for 20 minutes. Peripheral blood mononuclear cells (hereinafter referred to as “PBMCs”) in an intermediate layer were collected with a pipette, and washed. The collected PBMCs were suspended in a storage solution composed of 90% (v/v) FBS (manufactured by MP Biomedicals, LLC)/10% (v/v) DMSO (manufactured by SIGMA), or a storage solution composed of equivolumes of CP-1 (manufactured by KYOKUTO PHARMACEUTICAL INDUSTRIAL CO., LTD.) containing 8% (w/v) human serum albumin (name of formulation: Buminate, manufactured by Baxter Limited, hereinafter referred as to “HSA”) and an RPMI 1640 medium (manufactured by SIGMA), and stored in liquid nitrogen. During expansion of γδ T cells, these stored PBMCs were rapidly melted in water bath at 37° C., and washed with RPMI 1640 medium containing 10 μg/mL DNase (manufactured by Calbiochem), 10% (v/v) human AB serum (manufactured by Cambrex), 2 mM L-glutamine (manufactured by Cambrex), and 100 μg/mL streptomycin sulfate (manufactured by MEIJI SEIKA KAISHA, LTD.) (hereinafter referred to as “10HRPMI+L-Gln”) or Iscove's Modified Dulbecco's Medium (IMDM) (manufactured by Invitrogen) containing 10 μg/mL DNase and 10% (v/v) human AB serum (hereinafter referred to as “10HIMDM”). Thereafter, the number of live cells was calculated by trypan blue staining method. The cells were subjected to each experiment.
A fibronectin fragment (hereinafter referred to as a “FN fragment”) (CH-296 and H296-H296) was immobilized on a culture equipment used in the following experiment. Concretely, a buffer having a pH of 5.0 composed of 2.20% (w/v) sodium citrate dihydrate, 0.80% (w/v) citric acid monohydrate and 2.20% (w/v) glucose (all manufactured by Nakalai Tesque Inc.) (hereinafter referred to as “ACD-A solution (pH 5.0)”), containing CH-296 (final concentration: 25 μg/mL) or H296-H296 (final concentration: 3 μg/mL), was added to a 24-well cell culture plate (manufactured by Becton Dickinson or Corning), in a volume of 240 μL each.
These culture equipments was incubated for 5 hours or more at room temperature. Immediately before use, the ACD-A solution (pH 5.0) containing CH-296 or H296-H296 was removed by aspiration from these culture equipments, and thereafter each well was washed with twice PBS, and then once with RPMI 1640 medium, and the culture equipments were subjected to each experiment. As a control, a plate to which nothing was immobilized was used.
PBMCs prepared in Example 1-(1) were suspended in 10HRPMI+L-Gln or 10HIMDM so as to have a concentration of 1×10^6 cells/mL, to prepare a cell suspension. Thereafter, the above-mentioned cell suspension was added to a plate to which nothing was immobilized or a plate immobilized with CH-296 or H296-H296, prepared in Example 1-(2), in a volume of 1 mL/well each. […]

γδ T cells [2] = assay: Expansion of γδ T cell population cultured using pamidronate (Example 2); assay type: cell-based; conditions: human PBMCs; IMDM; stimulant pamidronate 5 μM; IL-2 100 U/mL; immobilized FN fragment; day 14
Description: PBMCs prepared in Example 1-(1) were suspended in IMDM containing 0.25% (w/v) HSA, so as to have a concentration of 2×10^6 cells/mL, to prepare a cell suspension. Thereafter, the above-mentioned cell suspension was added to a plate to which nothing was immobilized or a plate immobilized with H296-H296, prepared in Example 1-(2), in a volume of 1 mL/well each. Pamidronate was added to each well so as to have a final concentration of 5 μM. These plates were incubated at 37° C. in 5% CO2 (zeroth day of culture). On the second day from the initiation of culture, IL-2 was added to each well so as to have a final concentration of 100 U/mL. […]
The ratio of γδ T cells was analyzed according to flow cytometry for PBMCs prepared in Example 1-(1) and the cells on the fourteenth day from the initiation of culture prepared in Example 2-(1), in the same manner as in Example 1-(4). […]
The number of live cells was counted according to trypan blue staining method for the cells on the fourteenth day from the initiation of culture prepared in Example 2-(1). The expansion fold of γδ T cells was calculated in comparison of the counted number with the number of γδ T cells at the initiation of culture, in the same manner as in Example 1-(5).

[3] = medium 10HRPMI + L-Gln, stimulant pamidronate 5 μM

Molecule	Expansion Fold of γδ T Cells (Folds) Fourteenth Day of Culture (γδ T cells [1]; [3])	Expansion Fold of γδ T Cells (Folds) Fourteenth Day of Culture (γδ T cells [1]; medium 10HIMDM, stimulant IPP 5 μM)	Expansion Fold of γδ T Cells (Folds) Fourteenth Day of Culture (γδ T cells [1]; medium 10HIMDM, stimulant pamidronate 5 μM)	Expansion Fold of γδ T Cells (Folds) Fourteenth Day of Culture (γδ T cells [1]; medium 10HRPMI + L-Gln, stimulant IPP 5 μM)	Expansion Fold of γδ T Cells (Folds) Fourteenth Day of Culture (γδ T cells [2])
CH-296: polypeptide comprising a cell binding domain, a heparin binding domain and a CS-1 domain of fibronectin (SEQ ID NO: 13)	×3.85 Folds	–	–	–	–
B1	×5.76 Folds	×4.39 Folds	×3.18 Folds	×16.27 Folds	×101.8 Folds
